The values that follow come from patent publication US20240092884A1 (CHILDREN S HOSPITAL OF FUDAN UNIVERSITY, published 2024).

Sequences and labels used below:
T1: human ANGPTL3 protein (SEQ ID No. 19) (human, UniProt Q9Y5C1 18-460, limits assumed)
T1 construct: also called ANGPTL3-FLD; protein (immunogen)
T1 sequence: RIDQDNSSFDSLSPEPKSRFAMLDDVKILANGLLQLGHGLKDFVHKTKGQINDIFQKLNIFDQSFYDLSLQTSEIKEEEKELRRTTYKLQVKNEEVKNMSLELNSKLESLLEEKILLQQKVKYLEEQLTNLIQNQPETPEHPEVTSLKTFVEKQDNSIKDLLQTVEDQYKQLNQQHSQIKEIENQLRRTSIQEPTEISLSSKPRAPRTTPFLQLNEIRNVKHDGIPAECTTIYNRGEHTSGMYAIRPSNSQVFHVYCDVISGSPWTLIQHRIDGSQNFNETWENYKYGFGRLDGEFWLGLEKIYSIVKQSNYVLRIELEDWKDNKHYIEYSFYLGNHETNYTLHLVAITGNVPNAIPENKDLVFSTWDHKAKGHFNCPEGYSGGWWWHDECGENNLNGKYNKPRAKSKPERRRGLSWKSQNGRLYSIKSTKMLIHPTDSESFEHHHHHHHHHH

B1: anti-ANGPTL3 monoclonal antibody (prepared in Example 2) (antibody, IgG1, V domains shown)
VH: QVQLKESGPGLVAPSQSLSITCTVSGFSLTTYGVSWVRQPPGKGLEWLGVIWGDGNTNYHSALISRLSISKDNSKSQVFLKLNSLQTDDTATYYCAKGGPYGNYVPFDYWGQGTTLTVSS
VL: DIVLTQSPASLAVSLGQRATISCRASESVDSYGNSFMHWYQQKPGQPPKLLIYRASNLESGIPARFSGSGSRTDFTLTINPVEADDVATYYCQQSDEEPPTFGGGTNLEIK
notes: Recombinant antibody expressed transiently in ExpiCHO-S cells; also called anti-ANGPTL3-FLD mAb; mAb
B2: ANGPTL3-FLD-biotin (ligand)
chain: T1 sequence
modifications: biotin-labeled (sites not given)
notes: also called ANGPTL3-Biotin; Biotin-ANGPTL3-FLD

For experiment [1], the target named is human ANGPTL3 protein (SEQ ID No. 19) (human) (UniProt Q9Y5C1). Description: indirect ELISA, negative control supernatant, column A (taken as plate-coated ANGPTL3 of SEQ ID No. 19).
The target in the experiment “ANGPTL3-FLD-biotin” is B2. Briefly: competitive ELISA: antibody titrated in 0.16 µg/mL ANGPTL3-FLD-biotin, blocking its binding to plate-coated integrin αvβ3. From the text:
(§1) Integrin αvβ3 is a key receptor for ANGPTL3-FLD to act on podocytes and mediate podocyte damage. Therefore, in order to evaluate the biological activity of the anti-ANGPTL3 monoclonal antibody, a competitive ELISA experiment was designed to evaluate the activity of the anti-ANGPTL3 monoclonal antibody blocking the interaction between ANGPTL3-FLD and integrin αvβ3. In the competitive experiment of the anti-ANGPTL3 monoclonal antibody blocking the interaction between ANGPTL3-FLD and integrin αvβ3, ANGPTL3-FLD was biotin-labeled, and the lowest saturated concentration of ANGPTL3-FLD-biotin binding to integrin αvβ3 was determined as 0.16 μg/mL by ELISA (as shown in FIG. 3A). The anti-ANGPTL3 monoclonal antibody was serially diluted with 0.16 μg/mL ANGPTL3-FLD-biotin solution as a diluent to obtain a series of concentrations. Theoretically, ANGPTL3-FLD-biotin can saturate integrin αvβ3 on a solid support in the absence of monoclonal antibody. However, when the epitope of ANGPTL3-FLD recognized by the monoclonal antibody overlaps with the epitope of ANGPTL3-FLD binding to integrin αvβ3, the antibody may compete with integrin αvβ3 for binding to ANGPTL3-FLD-biotin, so that ANGPTL3-FLD-biotin cannot bind to integrin αvβ3 on the solid support.
2. Detect a Half-Maximal Inhibitory Concentration of Anti-ANGPTL3-FLD mAb [0098] […]

The target of experiment [2] is T1, human ANGPTL3 protein (SEQ ID No. 19). Description: SPR, Biacore T200, ANGPTL3 amine-coupled on a CM5 chip (852 RU), antibody injected at 6.25-800 nM, 25 °C, HBS-EP. Here is the method:
Angptl3 was immobilized on a CM5 sensor chip (Biacore T200, BR18010468 (GE Healthercare)) at 25° C. with HBS-EP as a running buffer (10 mM HEPES, 150 mM NaCl, 3 mM EDTA, 0.05% P20, pH 7.4). Flow cells 1 and 4 were activated on the surface of the sensor chip with fresh and mixed NHS (50 mmol/L) and EDC (200 mmol/L) for 420 s (10 μL/min). Then, Angptl3 diluted in 10 mmol/L NaAC (pH 5.0) waccording tojected into the flow cell 4 to achieve binding of about 852 Response Unit. In addition, Fc1 was set to blank. After the amine coupling reaction, 1 mol/L ethanolamine hydrochloride (pH 8.5) waccording tojected for 420 s to block the remaining active coupling sites on the chip surface.
The detection was carried out at 25° C. with HBS-EP as a running buffer. The anti-ANGPTL3 monoclonal antibody (prepared in Example 2) waccording tojected onto the surfaces of flow cells 1, 2, 3, and 4 as an association stage, and then the running buffer waccording tojected as a dissociation stage.
All data were processed using Biacore T200 evaluation software version 3.1. The flow cell 1 was used as a double reference for the subtractive response unit. For the detection results of the affinity of the anti-ANGPTL3 antibody to the ANGPTL3 protein, refer to FIG. 2.

In experiment [3] the target is T2, Integrin αvβ3 recombinant protein (R&D, 3050-AV-050) (UniProt P06756 31-992; P05106 27-718).
T2 construct: Bought heterodimer
T2 sequence (P06756 31-992, chain 1 of 2): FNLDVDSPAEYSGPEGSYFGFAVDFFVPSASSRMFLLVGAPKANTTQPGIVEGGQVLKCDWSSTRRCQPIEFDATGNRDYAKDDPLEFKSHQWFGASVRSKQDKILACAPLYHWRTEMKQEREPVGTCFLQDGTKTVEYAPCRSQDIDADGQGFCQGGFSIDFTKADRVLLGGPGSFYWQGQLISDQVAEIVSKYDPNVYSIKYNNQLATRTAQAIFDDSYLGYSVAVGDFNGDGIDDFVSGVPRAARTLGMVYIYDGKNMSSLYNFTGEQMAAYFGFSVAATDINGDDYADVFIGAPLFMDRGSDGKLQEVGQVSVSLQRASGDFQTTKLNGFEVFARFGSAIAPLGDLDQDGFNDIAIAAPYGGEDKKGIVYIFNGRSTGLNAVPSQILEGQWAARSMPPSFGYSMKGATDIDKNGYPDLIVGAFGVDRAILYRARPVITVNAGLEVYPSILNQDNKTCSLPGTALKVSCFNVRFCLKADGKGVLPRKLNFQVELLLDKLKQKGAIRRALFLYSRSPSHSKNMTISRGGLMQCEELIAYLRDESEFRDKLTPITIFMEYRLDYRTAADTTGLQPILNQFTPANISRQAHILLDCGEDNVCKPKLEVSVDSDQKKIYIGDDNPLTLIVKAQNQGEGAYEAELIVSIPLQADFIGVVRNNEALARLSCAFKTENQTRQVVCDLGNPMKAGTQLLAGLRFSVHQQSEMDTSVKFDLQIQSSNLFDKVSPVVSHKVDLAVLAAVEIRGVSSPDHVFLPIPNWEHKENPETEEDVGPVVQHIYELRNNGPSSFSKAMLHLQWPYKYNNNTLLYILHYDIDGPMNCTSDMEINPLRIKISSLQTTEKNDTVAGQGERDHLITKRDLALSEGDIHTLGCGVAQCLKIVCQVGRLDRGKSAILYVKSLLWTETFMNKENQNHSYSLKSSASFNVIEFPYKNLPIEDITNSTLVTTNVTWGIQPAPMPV
T2 sequence (P05106 27-718, chain 2 of 2): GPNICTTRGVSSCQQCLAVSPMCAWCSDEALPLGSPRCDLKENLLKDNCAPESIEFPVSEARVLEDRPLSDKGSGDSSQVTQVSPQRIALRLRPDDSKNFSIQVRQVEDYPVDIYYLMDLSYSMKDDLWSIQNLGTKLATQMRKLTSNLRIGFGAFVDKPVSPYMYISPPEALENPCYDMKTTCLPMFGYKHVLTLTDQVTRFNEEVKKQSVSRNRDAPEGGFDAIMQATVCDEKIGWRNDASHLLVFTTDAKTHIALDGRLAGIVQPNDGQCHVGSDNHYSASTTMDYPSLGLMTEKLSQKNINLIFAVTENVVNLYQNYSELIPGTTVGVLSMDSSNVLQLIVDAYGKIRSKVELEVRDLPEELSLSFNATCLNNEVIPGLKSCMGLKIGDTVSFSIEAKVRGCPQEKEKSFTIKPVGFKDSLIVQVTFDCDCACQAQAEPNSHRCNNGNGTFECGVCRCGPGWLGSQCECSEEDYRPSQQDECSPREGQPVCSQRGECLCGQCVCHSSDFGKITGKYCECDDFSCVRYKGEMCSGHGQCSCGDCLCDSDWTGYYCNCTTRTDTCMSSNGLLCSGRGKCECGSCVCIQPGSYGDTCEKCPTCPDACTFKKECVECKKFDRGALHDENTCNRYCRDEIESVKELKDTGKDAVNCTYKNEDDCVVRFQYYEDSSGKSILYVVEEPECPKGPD
Description: ELISA: integrin αvβ3 coated at 1 µg/mL, ANGPTL3-FLD-biotin titrated, detected with peroxidase-labeled streptavidin, OD450.
Excerpt: as §1, with “Therefore,” for “Integrin αvβ3 is a key receptor for ANGPTL3-FLD to act on podocytes and mediate podocyte damage. Therefore,”
1. Plot a Curve of the Binding of Integrin αvβ3/ANGPTL3 [0093] […]
In general terms: ELISA stands for enzyme-linked immunosorbent assay.

Consider Negative Control Supernatant, for which, in experiment [1], the OD 450 amounted to 0.195 OD450.
In the experiment with ANGPTL3-FLD-biotin, B1 showed a 50% effective concentration (EC50) of 1.57 µg/mL. In experiment [2], this molecule registered a Kd of 84.8 nM, a dissociation rate constant (koff) of 0.00142 s⁻¹ and a kon of 16700 M⁻¹ s⁻¹.
In the case of B2, in experiment [3], the “EC50 (read off the curve)” value is ~0.01 µg/mL.

In general, EC50 refers to the concentration at which the effect is half-maximal. A higher EC50 goes with weaker potency. Usually Kd stands for the free concentration of one partner at which half of the binding sites on the other are occupied at equilibrium, for simple one-to-one binding. The low end stands for higher affinity, the high end for lower affinity. What is called koff is the rate constant with which the complex falls apart. As usually defined, the kon is the rate constant with which the complex forms. What is called EC50 (read off the curve) is the concentration needed to bring the measured effect to its halfway point.
